From a protein production outcome set (Wang et al. 2014)

Assay: label from the status in PepcDB records

## MASSSKNITYPPRLYPEGLLKSSLCVFIKFADAKYIWAAHTVHYFLTNQLSVNNFHEIMSVIDGWPIRFSLTEFVDITSLNCDLLDKSTTCEIGHYEFWNEMGVGTYDGPLFIELKHVMDISKEWSYEKRLMVGRLCLLSVGVHGIYHGCRIPLSSAKLVLDPKAFEKYLWGRVAFESLVISVKIVDYKKDICDSWMCPRLVDLDL
  protein production: failed

## MSEHFLQQKYNSISENPIYLFWFLQFCFWSFVSLISLVSLTLWYVQIDVAHLNHTFLQSFVGVVFSLPLYWAFMRCWNTSIFIRVFVSITSVLLISFIWTVIRVELYIRLTGTDEIWTQFGGWYFSSIFIYFCWTGFFHGIRYYQLLQFEHEIMLKKEAEAKTEQLKRLSAQTVARDAKIKMLRYQLNPHFLCNTLNAINSLIECELPEKAQLMTVQLSKFLRYSLDNDPDTKIALEFELKALELYLEIEKTRFGERLQLDFQISEAAKAAFIPSLLLQPLIENSMKHVIAQNEEGGVISLSADVIDNMLVLELSDTGSAKRVDINKIKSKTGRGVGLRNIDERLKALYTDNYVYNLNVRPSGGLKTTIKLPLDSQGEPDIVNQAYNSMKVC
  protein production: failed

## MMINRINLTDIRSFVLIARLGNFTKAAETLDVSRSHVSRQISSLEKQMGVTLLIRTTRTLRLTEAGKHFYHQCEQALHTIDQALLSAVDDVEKVQGEIKINCVGGYLGEVFLADIVNTFMQQYPDVSISLDFSSNRVDLIEEEFDIAFRMGSLEDSGFVAKKLLDIEMGTLASPKYLQQYGRPSHPKELQQHHCLTGSVRKWHFQSLVNKEHYDVSIKGNLQCKNGRVLVAGAIAGNGIIRVPLIYCQQELDDKKLVQVFEEWGIPTVDFSAIYHRDRYQPKRIRTFIDFVKQYSDSLFT
  protein production: failed

## METLRVSSKSRPNSVAGAIAALLRTKGEVEVQAIGPQAVNQAVKAIAIARGYIAPDNLDLVVKPAFVKLELENEERTALKFSIKAHPLET
  protein production: not failed

## MYADEQFKQVFQCIRCAACLNVCPAFQLVGGHVYGHIYTGGIGTILTAFLNSEKDAENPQNLCLQCGKCTEVCAGKLDIPGMILEIRNRIGDQKGLPMTPLEHHHHHH
  protein production: failed

## LSQNTLAENIYNIIISDISRKWALKDISDSLYMSCSTLKRKLKQEHTSFSEVYLNARMNKATKLLRNSEYNITRVAYMCGYDSASYFTCVFKKHFKTTPSEFLAFLSSSRHQ
  protein production: failed

## MKRSLLACAMSCMMLTVSAHSDFDVRNVDSQFHVPEIGGGVGLIDQQKERQIGEKVFREIQKQMPVVHDPWLQEQYSQIFLRVLAQTSITQPVGLVIIKDPQINAFAVPGGLFALNTGLIANARNIDEVAGVMAHEVAHVTQRHYSRSQEAFKGQGLLALAGILVGAAVATTSNADVGSAVMLGTQAALMDRQLTYSRNQEREADRIGMQYMYAAGYNPQSMADFFETMQRSRVGSSFMPDFWMTHPLTTERMSEARLRANQLPKVETKLYDPNFQLLKWYTLAVSDPSSEKILENVVKQGNKEAQLALGAYYVGQGDFVKAQKQLDDIKSQFNENTLYCLIQTNIYLGQNELDQAYSSIVNIQRAMPESRALAYKLAEVMILQGKAGDTLQLIQPFVNRNPRDLEGWQLMQQASSIDRISPVQTVNTLRYRAEVQFWSGNEENAIKSLLHAQRLAKGNESLSARIDSRLKQMQSDYTMKI
  protein production: failed

## MENETVSELNQTQLQPRAVVALEYQVVTILLVLIICGLGIVGNIMVVLVVMRTKHMRTPTNCYLVSLAVADLMVLVAAGLPNITDSIYGSWVYGYVGCLCITYLQYLGINASSCSITAFTIERYIAICHPIKAQFLCTFSRAKKIIIFVWAFTSLYCMLWFFLLDLNISTYKDAIVISCGYKISRNYYSPIYLMDFGVFYVVPMILATVLYGFIARILFLNPIPSDPKENSKTWKNDSTHQNTNLNVNTSNRCFNSTVSSRKQVTKMLAVVVILFALLWMPYRTLVVVNSFLSSPFQENWFLLFCRICIYLNSAINPVIYNLMSQKFRAAFRKLCNCKQKPTEKPANYSVALNYSVIKESDHFSTELDDITVTDTYLSATKVSFDDTCLASEVSFSQS
  protein production: failed

## DLNLPIYPVKGYSLTLPVTNSDGAPVSTVLDESYKVAITRFDNRIRVGGMAELSGYEIKLPEKRRETLALVVNDLFPEGGDLSQASFWSGLRPMTPDSTPLIGRTRFDN
  protein production: failed

## MLALVKRNCLLYFRNRSGVVFSLLGALISFILYLVFLKDNIESSWSQIDNTNQLLDTWLIGGTLAITGITTTLSNLSQWTKDKESHVRQDLLITDLGYWPLSLSYIISAALVGFIMQAIMLTIMGTYFYFTDKVTLSWTVLLQLIFIMILNTLISTIINALIVNRIQSVDNLGKLATIFGAASGFLVGTYVPIGALPDTAQTIMKLTPGAYIASLFRQTLMSDTLKDNFSQANAREHFEKMMGIRLNWQNLLTNTDTYYIVIGILVAGVLIFCLQNALRKYQALI
  protein production: failed

## MSSLVQSVDWLAIAPPTLAAVVGLVVLVADLFIGDHKKALLGWVSVAGLAASALLLLPLLDGDRATFCLTGDANTCSYTADHFTLAIQFLVLGGALLAALLSVTALKDADREIPEGEFWFLLLSSAAGAALLPASRDLATLIVALEVASLPAFALVGIKRGDKKSSEAALKFFLSSVTATAVSLMGVSFVYASTGTLYLTEIARKIQHVDGQLHTLAQTGVVLTLVGFAFKTAAVPFHFWVPDTYVGAPLPIAAYLSVVGKAVGFSGLILVTVVAFPSYADVWGPALAALAALTMTVGNVGALRQQATRAYSAVRLLAWSSVGQAGYLLVPIAAAAYSKDAEKAIGSTVAYALMYAAVNLGAFAVAALVGRTKVLNRVSDYRGLYASNPLAALLLGFFLLCLAGLPPGIIGLFAKVTVFSAAVDAGLGWLAVVMAVNVVIALFYYLQWTTLLFRAPEGEPEKHRVPAPLTAAIALTAVLGVALSGAPQLVLRFSDTGLF
  protein production: failed

## MSFSFLFILTAGMVAAFNPCGIALLPSYISYLIGGETKDHSFRYAIFKGLGLGGAMTTGFLTIFVLAGLLIGGLGSALTGIFPILSLVMGILIALLGLGMLFGKHLPIKIGSFQVKPGKWSIYFYGIAYAVTSLGCTLPAFMLVVSASLNDNSVTAVIIKFIIYSLGMGIVVTAITMVSLISRQLVQKFLHNYMGSIQKIAAVVIFLSGLYMAYYWYFGSGGICTF
  protein production: failed

## ASNSQLNAMAHQIQEMFPQVPYHLVLQDLQLTRSVEITTDNILEGRIQVPF
  protein production: not failed

## MDINYERPDPYYLLNKIDKEEKNKNRGKLKIFFGYAAGVGKTYAMLRAAHYMKELGKDIVIGYIEPHARMDTMSLTKGLPQIPVKNIDYKGVILREFDVDKALLRKPEIILVDELAHTNAKSQRNKKRWKDIEELLDAGIDVYTTLNVQHIESLNDIVANITHVSVRETIPDKVFDDADKVELIDIEPDELLKRFTDGKIYRKEQVKRAFNNFFTKNNLYALREIALRRTADRVNFEIEIARLSKGQITVMATSDQILACIGTSPSSARIIRTAARMAESYHSKWIALYVDTGRSLGKADKETLNANFNLVELLGGELVTVHGENVADQIIRYAELRNTTKIVIGKNHKRTGTLLHFYAKDVVDKLMDSNSYIDVYMIPNSSYYRDHKNSILSKISIQHKGSVKDVLKAIIIMAITTDIAELFSYMGFKDVNVIMIFILGVIIVYMATKGQIMGIISSIAAVLVFNYRFTEPKNSFIVYDKSYLVTFPIMMIVAFIIGSLTNKVQKEAQDSNMREKRTQTLYIVSGKLLSAVGTSEVVSIGIKYISRLVNRNVICYLADTSNKLSTPFVYKKDKGAKEEIIMSKDENAAAYWTFLNGKESGCGTSTFYRAKGYYIPIKIKNKVLGVIGVSCPSGPLRPQKKAVVDTVTGQIAIALDREILSKEQEKSKVEIERERLRSNLLRSISHDLRSPLAGIKGAASTILENGELIDEKRKQELINGIYEDTEWLIRLIENLLSMTKFDEGNTKIKKDVELVEEVVSEAVQRSSKYFKNHKIKVSVPEDVIMVSMDGSLIEQVIINLLDNASKFSPKGSTIEIKVYEKKKDVVFEIIDEGQGISEDILPNIFDRFFTNGSKISDSRRGVGLGLAICKSIVEAHGGKIEAVNKGSGGAIFKFNIPKEL
  protein production: failed

## MNIGNITISVIIPVYNASVTLPHCLESLHKQTYRNLELLFVDDCSTDESLYILTSYAEQFAEIDFTIRILQHERNRGVAAARNTALKCATGDYIYYVDADDSIEPHTLECLVNEINHKGLDIVGHEWYLTFNSNARYMKQPAYTTSVEALRKMMGGVMRWNLWLFLVRRSLYVENDIRFTEGLNMGEDMMVMMKLFICAGKVGIVHRPFYHYRQSNPESLTKIYSQEHIIQVANNVYEVEKYVNASAYADSLIEFIPFLKLNIKLPLLITDDKSHYEQWLECFPEANCYVMNNKLLPLRTRIIQWMAVKRYFILLRLYYRTVFKLVYGIIYKLEHHHHHH
  protein production: failed

## MLIREAKLAGTPEQFAQLDAAIRTAQCVHNRCLRYWRDNAGVSKNDLQKFCAVLAKDAEQPWMGLLNSQARQAAAERTWQSIQSFYRRCKEGAKHKGYPKFKKHSRSVEYKTSGWKLSDDGMSITFTDGFKAGQLELWLDGSARQLILSSKINRVRVVRRADGYYAQFCLDVERQEAGVYSGNVIGLDLGLKYFTKDSNGAEVACPKFFRKGEKRLRRAQRRLSKRFKKGAKPQSKNYHKQRQRIGKVHLKIQRQRKSWAIEQARRVMVSNDIVVYEDLRVPNLVRSRHLAKSIHDAGWTQFTHWLDYYGKLWRKVVVAVNPAYTSQDCSGCGYRVQKSLSTRTHDCPHCGLTICRDQNAALNILKRGLEVVGAEWNNGTAGHAETGSQEQTTGEISTSAEVGQPTSVSAVAEPVRTSREAV
  protein production: failed

## MTLGTNQVSKTHSFMTVSLIELWERFGYYGMQALIVYFMVQRLGFDDSRANLVWSACAALIYVSPAIGGWVGDKILGTKRTMLLGAGILSVGYALMTVPTENTWFMFSALGVIVVGNGLFKPNAGNLVRKIYEGDDSKIDSAFTIYYMAVNVGSTFSMLLTPWIKDYVNAQYGNEFGWHAAFAVCCVGILVGLGNYALMHKSLANYGSEPDTRPVNKKSLAIVLALAALSVVASAIILEYEDVARVFVYAAGVAVLGIFFHLIRTSEPSERAGLIAALILTVQTVFFFIFYQQMSTSLALFALRNVDWDFQVFGTHLWTWSPAQFQALNPIWIMVLSPVLAWSYSWAGRNNKDFSIAAKFALGFAVVAIGFFIYGFAGQFAVNGKTSSWVMIWGYASYSLGELLVSGLGLAMIARYVPARMGGFMMGAYFVASGISQYLGGVVANFASVPQDLVDPLQTLPVYTNLFNKLGVAAVVCTIIALAVLPLMRRLTESHHAHSSIENNAAASLRDVKAEQ
  protein production: failed

## EDVEFVRLNVSDLLTDPELAQSIFSLLVSAHYQTSPNDWLALLSDPSLFCWAGIDKSSRNVLTCALVSLEGQLDNELIADIQVGKRRPRGHLVPVSLTQTLCINEPAQQSCIRIMRIAVEQHYQRMHLGSKFIEYIKAFYCDLGIDYLSTSFGSTPGLNEFWLSLDF
  protein production: failed

## MEIQIVTGFLGAGKTTFLNRYLPLLSGKTVVIENEFGDIGIDGDRIQEDIPVREIFAGCICCSLAMDFRKGIKEIAENFHPDRILIEPSGVGRLTDIVKACQMAREREKVSLQITKLIAIVDMASFEEYIEGFGAFYQDQIERAGLLLLSHVEAENKAQKEIIIGRLKELNPDAILYDGDWRQLENEELLKLLEEAPDYDEDARRDAAFAALPADKVFSSVSFMDLPQMRIEDLEAIMKALEKEEYGYILRAKGWIETMEKGLVHFDFTPTVSKYREEKNPAGTGGEAVVIGCGLNQAALEMLFRRKNILEHHHHHH
  protein production: not failed

## MVISSKITDDCSYVKCLSFMMKSRTGNILLAQPENLAHDDDLSQSLLSQVTAVWLWTSLSYGGKPIFNRGISQLVTKKWTIIFNTENTNNHVSLPAPQEISPRLRLASSGTWRLVIGTWE
  protein production: failed

## MDKKPSILIFIVAYNAESTIENVLMRIPADLLDDFDAEVLVIDDQSSDDTVLRCAETIQSGKIRFKTNVLVNPENQGYGGNQKVGYQYAIEHDFDCVALLHGDGQYAPEYLRDLITPVTKGEAEAVFGSRMMTPFGALKGGMPAYKFVGNKILTLFQNIMLKTSLSEFHSGYRAYSVKALKQIPFHLNTPDFHFDTEIIIQLILWGFRIAERPIPTYYGDEICYVNGLKYALDVVITTTKARMQRLGLFHECKYEVIHPHNSNGYPEAKLSIKSPSGNRILEHHHHHH
  protein production: failed
